In paper PMC12343972 (Nature Communications, 2025):

How the values were obtained:
[1] = molecular target: T1, Rad50-R1201A (Saccharomyces cerevisiae, UniProt P12753 1-1312, R1201A); assay: EMSA
T1 sequence: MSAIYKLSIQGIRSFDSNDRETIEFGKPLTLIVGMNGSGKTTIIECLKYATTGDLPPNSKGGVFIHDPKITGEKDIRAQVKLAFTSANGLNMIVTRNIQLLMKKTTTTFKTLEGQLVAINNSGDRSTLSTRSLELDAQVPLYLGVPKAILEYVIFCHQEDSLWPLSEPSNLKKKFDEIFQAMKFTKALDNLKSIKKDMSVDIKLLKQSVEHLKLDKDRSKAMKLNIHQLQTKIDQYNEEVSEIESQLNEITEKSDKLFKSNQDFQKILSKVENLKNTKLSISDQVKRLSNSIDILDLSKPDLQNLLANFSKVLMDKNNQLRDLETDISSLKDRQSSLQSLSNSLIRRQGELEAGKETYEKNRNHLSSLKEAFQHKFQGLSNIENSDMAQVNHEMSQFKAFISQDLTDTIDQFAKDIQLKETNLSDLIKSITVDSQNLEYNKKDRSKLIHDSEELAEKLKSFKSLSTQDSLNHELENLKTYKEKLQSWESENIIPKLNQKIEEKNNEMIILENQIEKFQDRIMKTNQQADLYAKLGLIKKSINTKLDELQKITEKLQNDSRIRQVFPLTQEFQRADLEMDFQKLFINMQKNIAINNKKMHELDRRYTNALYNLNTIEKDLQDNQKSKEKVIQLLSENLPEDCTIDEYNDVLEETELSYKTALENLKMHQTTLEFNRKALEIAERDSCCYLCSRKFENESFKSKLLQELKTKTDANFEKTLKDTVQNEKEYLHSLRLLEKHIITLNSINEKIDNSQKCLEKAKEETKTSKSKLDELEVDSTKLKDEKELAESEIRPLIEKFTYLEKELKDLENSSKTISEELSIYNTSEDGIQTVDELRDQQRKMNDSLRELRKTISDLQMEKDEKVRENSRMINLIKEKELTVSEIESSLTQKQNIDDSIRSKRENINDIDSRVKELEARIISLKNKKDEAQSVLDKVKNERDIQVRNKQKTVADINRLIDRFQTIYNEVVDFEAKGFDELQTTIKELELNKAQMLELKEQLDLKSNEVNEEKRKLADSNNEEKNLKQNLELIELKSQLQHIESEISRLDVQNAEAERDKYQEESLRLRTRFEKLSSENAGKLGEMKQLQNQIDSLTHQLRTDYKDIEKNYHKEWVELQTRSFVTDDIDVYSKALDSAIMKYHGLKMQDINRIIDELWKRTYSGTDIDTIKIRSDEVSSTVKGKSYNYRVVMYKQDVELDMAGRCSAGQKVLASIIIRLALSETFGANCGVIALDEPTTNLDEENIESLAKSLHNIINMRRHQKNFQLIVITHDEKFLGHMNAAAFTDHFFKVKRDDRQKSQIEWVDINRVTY

[2] = molecular target: T2, Rad50-R131A (Saccharomyces cerevisiae, UniProt P12753 1-1312, R131A); assay: EMSA
T2 sequence: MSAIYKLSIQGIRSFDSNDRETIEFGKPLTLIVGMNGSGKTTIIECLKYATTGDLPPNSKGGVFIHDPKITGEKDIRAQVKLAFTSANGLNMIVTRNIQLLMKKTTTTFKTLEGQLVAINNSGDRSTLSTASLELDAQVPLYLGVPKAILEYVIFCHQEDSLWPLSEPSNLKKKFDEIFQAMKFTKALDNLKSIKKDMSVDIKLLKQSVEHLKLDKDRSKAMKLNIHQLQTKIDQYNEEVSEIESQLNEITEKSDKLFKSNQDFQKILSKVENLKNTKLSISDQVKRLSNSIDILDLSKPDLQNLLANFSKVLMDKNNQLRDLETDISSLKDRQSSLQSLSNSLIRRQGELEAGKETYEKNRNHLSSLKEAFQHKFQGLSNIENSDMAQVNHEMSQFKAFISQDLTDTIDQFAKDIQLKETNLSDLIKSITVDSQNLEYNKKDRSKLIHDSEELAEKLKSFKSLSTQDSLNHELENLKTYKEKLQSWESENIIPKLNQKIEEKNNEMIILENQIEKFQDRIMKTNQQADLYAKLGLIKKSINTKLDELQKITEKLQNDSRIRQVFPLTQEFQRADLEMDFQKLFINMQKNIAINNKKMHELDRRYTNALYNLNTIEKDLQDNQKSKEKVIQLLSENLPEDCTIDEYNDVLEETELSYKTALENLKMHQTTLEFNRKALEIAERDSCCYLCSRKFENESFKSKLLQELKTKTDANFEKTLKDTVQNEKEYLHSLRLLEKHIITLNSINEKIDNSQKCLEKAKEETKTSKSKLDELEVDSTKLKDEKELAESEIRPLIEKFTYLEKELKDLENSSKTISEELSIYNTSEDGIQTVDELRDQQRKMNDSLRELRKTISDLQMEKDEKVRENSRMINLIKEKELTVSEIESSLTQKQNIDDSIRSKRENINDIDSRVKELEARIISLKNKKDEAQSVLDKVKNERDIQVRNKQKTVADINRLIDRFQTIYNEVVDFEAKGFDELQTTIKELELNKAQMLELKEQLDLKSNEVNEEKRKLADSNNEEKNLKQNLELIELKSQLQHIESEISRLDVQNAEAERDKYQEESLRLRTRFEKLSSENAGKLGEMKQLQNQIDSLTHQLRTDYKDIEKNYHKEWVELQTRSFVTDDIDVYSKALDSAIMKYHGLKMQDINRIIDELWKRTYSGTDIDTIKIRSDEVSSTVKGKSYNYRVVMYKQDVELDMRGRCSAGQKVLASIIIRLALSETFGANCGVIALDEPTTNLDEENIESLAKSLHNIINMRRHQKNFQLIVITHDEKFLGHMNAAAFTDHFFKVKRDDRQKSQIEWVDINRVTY

B1: 83-mer dsDNA (EMSA) (dsDNA)
DNA 1: TTGATAAGAGGTCATTTTTGCGGATGGCTTAGAGCTTAATTGCTGAATCTGGTGCTGTAGCTCAACATGTTTTAAATATGCAA
DNA 2: TTGCATATTTAAAACATGTTGAGCTACAGCACCAGATTCAGCAATTAAGCTCTAAGCCATCCGCAAAAATGACCTCTTATCAA
binding result [1]: binds
binding result [2]: binds
